This is an account of results in US20090281024A1 (RAPTOR PHARMACEUTICALS, published 2009).

The labels stand for the following.
T1: LRP2 CR89 V1047D R1088D (human, UniProt P98164 1022-1105)
T1 construct: also called YDWD; not shown: N-terminal hexahistidine and S-peptide tag stretch of pET30(+)a
T1 chain: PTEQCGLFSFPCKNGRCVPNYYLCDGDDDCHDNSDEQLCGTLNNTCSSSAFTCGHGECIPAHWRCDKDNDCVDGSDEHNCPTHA

T2: LRP2 CR89 V1047D (human, UniProt P98164 1022-1105)
T2 construct: also called YDWR; not shown: N-terminal hexahistidine and S-peptide tag stretch of pET30(+)a
T2 chain: T1 chain with D68R

T3: LRP2 CR89 Y1042W R1088D (human, UniProt P98164 1022-1105)
T3 construct: also called WVWD; not shown: N-terminal hexahistidine and S-peptide tag stretch of pET30(+)a
T3 chain: T1 chain with Y22W, D27V

T4: MegaRAP1 d3 (human, UniProt P30533 235-353)
T4 construct: range 201-319 (mature RAP numbering); d3 of the variant selected on LRP2 CR89; also called RAPv2A d3; RAP v2A; not shown: N-terminal hexahistidine and S-peptide tags of pET30(+)a
T4 sequence (looked up): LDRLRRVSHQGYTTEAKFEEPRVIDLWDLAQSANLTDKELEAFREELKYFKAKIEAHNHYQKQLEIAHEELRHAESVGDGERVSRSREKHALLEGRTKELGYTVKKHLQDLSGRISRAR

B1: RAP-GDNF fusion protein (ligand, UniProt P30533 35-353, looked up)
chain: YSREKNQPKPSPKRESGEEFRMEKLNQLWEKAQRLHLPPVRLAELHADLKIQERDELAWKKLKLDGLDEDGEKEARLIRNLNVILAKYGLDGKKDARQVTSNSLSGTQEDGLDDPRLEKLWHKAKTSGKFSGEELDKLWREFLHHKEKVHEYNVLLETLSRTEEIHENVISPSDLSDIKGSVLHSRHTELKEKLRSINQGLDRLRRVSHQGYSTEAEFEEPRVIDLWDLAQSANLTDKELEAFREELKHFEAKIEKHNHYQKQLEIAHEKLRHAESVGDGERVSRSREKHALLEGRTKELGYTVKKHLQDLSGRISRARSPDKQMAVLPRRERNRQAAAANPENSRGKGRRGQRGKNRGCVLTAIHLNVTDLGLGYETKEELIFRYCSGSCDAAETTYDKILKNLSRNRRLVSDKVGQACCRPIAFDDDLSFLDDNLVYHILRKHSAKRCGCI
notes: Secreted from CHO cells as a disulfide-linked homodimer of about 120 kD
B2: RAP d3 (wild-type third domain of the receptor-associated protein) (ligand, human, UniProt P30533 235-353, looked up)
chain: T4 sequence (looked up) with T13S, K17E, Y49H, K51E, A56K, E70K
notes: range 201-319 (mature RAP numbering); Expressed in E. coli from pET30(+)a; also called wild-type RAP d3; not shown: N-terminal hexahistidine and S-peptide tags of pET30(+)a
B3: LRP2 CR89 R1088D (receptor)
chain: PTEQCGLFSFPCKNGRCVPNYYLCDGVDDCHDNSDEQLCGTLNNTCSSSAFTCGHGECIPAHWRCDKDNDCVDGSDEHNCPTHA
notes: also called YVWD; not shown: N-terminal hexahistidine and S-peptide tag stretch of pET30(+)a
B4: LRP2 CR3031 (receptor)
chain: not shown
notes: domain: CR3031; not shown: N-terminal hexahistidine and S-peptide tags of pET30(+)a

Assay [1] deals with T5, GFRα-1.
T5 construct: Bought reagent; construct not described; also called soluble GFRα-1
The experiment in a line: solid-phase assay, coated RAP-GDNF, serial dilutions of GFRα-1 (FIG. 12). As to the method: Solid-phase binding assays—Microtiter plates were coated with GDNF or RAP-GDNF in 50 mM sodium carbonate, pH 9.6. The plates were then blocked for 1 hour at room temperature with blocking buffer (Promega) and incubated with serial dilutions of GFRα-1 (0-10 nM) in the presence or the absence of 1 μM RET (2 hours, ambient temperature). Complexes were identified by probing with an anti-GDNF monoclonal antibody (B8, Santa Cruz Biotechriology) and then with anti-mouse […] (Bio-Rad). After adding TMB solution (Bio-Rad), the color development was stopped with HCl and the OD 450 nm was measured using a plate reader. Between steps, the plates were washed three times with DPBS containing 0.1% Tween 20. This method provides a method for quantitating the affinity of RAP-GDNF for GFRα.

Assay [2] has as its target T5, GFRα-1. The experiment in a line: solid phase assay, RAP-GDNF concentration varied, OD 450 nm.
A further assay deals with T1, LRP2 CR89 V1047D R1088D. Description: solid-phase assay, coated CR protein. As to the method:
(§1) Wells were washed with TBSTC and bound ligands detected with polyclonal anti-RAP (BP41/42, 1:1,000, BioMarin). Excess primary antibody was removed and wells washed before incubation with the secondary antibody, HRP-conjugated goat anti rabbit IgG (Bio-Rad). After washing, TMB substrate solutions (Bio-Rad) were added to detect HRP. Color development was stopped with 1N HCl. Absorption at 450 nm was measured with a microplate spectrophotometer (Molecular Devices). Data were plotted and Kd values derived by non-linear regression with the assumption of single-site binding (GraphPad Prism).
(§2) One premise of this work was that amino acids at A, C, A′ and C′ within the calcium-binding loops of a CR pair were key determinants of binding affinity for RAP and would be similarly important for binding of RAP variants. To test this idea, mutant LRP2 CR89 were prepared in which the native, non-canonical residues at these positions were sequentially substituted with the non-native, canonical residues. As defined above, the A, C, A′, C′ string for LRP2 CR89 is YVWR. Mutants included LRP2 CR89Y1042W (WVWR), LRP2 CR89V1047D (YDWR), LRP2 CR89R1088D (YVWD), LRP2 CR89V1047D R1088D (YDWD), LRP2 CR89 Y1042W V1047D R1088D (WDWD), LRP2 CR89Y1042W V1047D (WDWR), LRP2 CR89Y1042W R1088D (WVWD). Binding to both RAP d3 and MegaRAP1 d3 were measured for each LRP2 CR89 mutant by solid-phase assay. […] The A′ position in LRP2 CR89 is a tryptophan, the canonical residue for wild-type RAP d3 binding, and was not mutated in our studies. […] We did see a small increase in binding of RAP d3 to the WVWD and WDWD combinations at A, C, A′ and C′.

A further assay concerns the target T2, LRP2 CR89 V1047D. The experiment in a line: solid-phase assay, coated CR protein. As to the method: as §1, §2
A further assay has as its target T3, LRP2 CR89 Y1042W R1088D. Description: solid-phase assay, coated CR protein. As to the method: as §1, §2
The target of assay [3] is T6, LRP1 CR3-5 (human).
T6 construct: range 852-973; also called L1 CR3-5; LRP1 CR3-S [sic]
The experiment in a line: solid-phase assay, coated CR protein (same value as Table 1).

In assay [4] the target is T6, LRP1 CR3-5. The experiment in a line: solid-phase assay, coated CR protein. As to the method: as §1
Next, the binding of RAP d3 and MegaRAP1 d3 proteins to LRP1 CR3-5 and LRP2 CR89 was assessed. […] In all cases, 10 mM EGTA prevented binding of both RAP d3 and MegaRAP1 d3 to CR proteins. Since calcium was the only divalent metal ion present in the binding buffer, this observation is consistent with both RAP d3 and MegaRAP1 d3 binding to calcium-loaded CR pairs. […] Therefore, wild-type RAP d3 and MegaRAP1 d3 have inverted binding preferences for these two receptor fragments.

Assay [5] addresses T6, LRP1 CR3-5. Description: solid-phase assay, coated CR protein (FIG. 4). As to the method: Solid phase binding assays—Purified, refolded CR protein (1 μg) was bound to Nunc Maxisorp™ 96-well plates in TBS pH 8 supplemented with 5 mM CaCl₂ (TBSC) overnight at 4° C. Wells were washed with TBSC and then blocked with TBSC containing 2% bovine serum albumin (BSA). RAP ligands were then incubated with the immobilized receptor at a range of concentrations for 2 hours in the above blocking buffer supplemented with 0.05% Tween-20 at room temperature. Control wells contained no added ligand. As an additional control, to determine whether the absence of calcium affected binding, 10 mM EGTA was included in the incubation medium for some samples. Wells were washed with TBSTC and bound ligands detected with polyclonal anti-RAP (BP41/42, 1:1,000, BioMarin). Excess primary antibody was removed and wells washed before incubation with the secondary antibody, HRP-conjugated goat anti rabbit IgG (Bio-Rad). After washing, TMB substrate solutions (Bio-Rad) were added to detect HRP. Color development was stopped with 1N HCl. Absorption at 450 nm was measured with a microplate spectrophotometer (Molecular Devices). […]
The binding of wild-type RAP d3 to each CR pair or set of overlapping pairs was then measured by solid-phase assay (FIG. 4). […] Binding of RAP d3 to MAT CR12 and CR34, measured in a separate set of experiments, was also undetectable. […]

In assay [6] the target is T4, MegaRAP1 d3. Description: solid-phase assay, coated CR protein. As to the method: as §1, §2
Assay [7] addresses B2. Description: solid-phase binding assay: CR protein coated on the plate, d3 ligand at 80 nM, anti-RAP detection, blank-corrected absorbance. As to the method: (§3) RAP d3, MegaRAP1 d3, VRAP2 d3, MatRAP1d3 and MatRAP2 d3 were each incubated at 80 nM concentrations with LRP1 CR3-5, LRP6 CR12, LRP6 CR23, LRP6 CR1-3, LRP2 CR89, LRP2 CR2728, LRP2 CR3031, LRP2 CR3435, LRP2 CR34-36, VLDLR CR78, VLDLR CR6-8, MAT CR12, MAT CR23 and MAT CR34. Samples were tested twice, in duplicate, and values combined. Means and standard deviations were then calculated. Blank values obtained from wells incubated in the absence of ligand were used to correct absorbance data.
(§4) Solid phase binding assays—Purified, refolded CR protein (1 μg) was bound to Nunc Maxisorp™ 96-well plates in TBS pH 8 supplemented with 5 mM CaCl₂ (TBSC) overnight at 4° C. Wells were washed with TBSC and then blocked with TBSC containing 2% bovine serum albumin (BSA). RAP ligands were then incubated with the immobilized receptor at a range of concentrations for 2 hours in the above blocking buffer supplemented with 0.05% Tween-20 at room temperature. Control wells contained no added ligand. As an additional control, to determine whether the absence of calcium affected binding, 10 mM EGTA was included in the incubation medium for some samples. Wells were washed with TBSTC and bound ligands detected with polyclonal anti-RAP (BP41/42, 1:1,000, BioMarin). Excess primary antibody was removed and wells washed before incubation with the secondary antibody, HRP-conjugated goat anti rabbit IgG (Bio-Rad). After washing, TMB substrate solutions (Bio-Rad) were added to detect HRP. Color development was stopped with 1N HCl. Absorption at 450 nm was measured with a microplate spectrophotometer (Molecular Devices). Data were plotted and Kd values derived by non-linear regression with the assumption of single-site binding (GraphPad Prism).
(§5) The apparent dissociation constant for binding of VRAP1d3 to VLDLR CR78 was determined to be […]. We then compared binding of RAP d3, MegaRAP1 d3, VRAP1d3, MatRAP1d3 and MatRAP2 d3, each at a concentration of 80 nM, to fourteen CR pairs or triplets, including LRP1 CR3-5, LRP2 CR89, LRP2 CR2728, LRP2 CR3031, LRP2 CR34-36, LRP2 CR3536, VLDLR CR78, VLDLR CR6-8, LRP6 CR1-3, LRP6 CR12, LRP6 CR23, MAT CR12, MAT CR23 and MAT CR34 (FIG. 7).

Assay [8] concerns the target T4, MegaRAP1 d3. The description is as above. As to the method:
as §3, §4, §5

Numbering of substitutions follows the chain as printed.

T6 sequence (Q07954 852-973): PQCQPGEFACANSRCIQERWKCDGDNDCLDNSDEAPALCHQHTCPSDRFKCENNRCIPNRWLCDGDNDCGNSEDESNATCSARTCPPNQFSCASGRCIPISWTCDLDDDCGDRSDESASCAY

A word on the Kd: it is the constant that tells how readily two partners part at equilibrium. By EC50 (read off the curve) is commonly meant the concentration that produces a half-maximal response. In turn, B1 came in with a Kd with GFRα-1 [1] of approximately 5 ng/mL. In addition, the 50% effective concentration (EC50 (read off the curve)) in the assay with GFRα-1 [2] was approximately 2 ng/mL.
With B2, the “% max bind” value was 6% in the assay with LRP2 CR89 V1047D R1088D, 6% with LRP2 CR89 V1047D and 16% with LRP2 CR89 Y1042W R1088D. Besides, the dissociation constant (Kd) with LRP1 CR3-5 [3] amounted to 16 nM; with LRP1 CR3-5 [4], 16 nM; with LRP1 CR3-5 [5] it was 11 nM. Besides, the “% max binding” value with LRP1 CR3-5 [4] was 76%.
On to B3, for which the Kd with MegaRAP1 d3 [6] worked out at 78 nM.
Turning to B4, the binding result (in assay [7]; with MegaRAP1 d3 [8]) was “no binding (tested: 80 nM)” throughout.
